The target of assay [1] is α4β1 integrin on J6.77 cells (UniProt P13612). Description: cell-based or functional assay.
In assay [2] the target is human αV on parental A375M cells (αVβ3 and αVβ5 integrins) (human) (UniProt P06756). The assay can be described thus: cell-based or functional assay.
Assay [3] addresses α5β1 integrin on K562 cells (UniProt P08648). The assay can be described thus: cell-based or functional assay.
Assay [4] has as its target mouse αVβ6 on cells (mouse) (UniProt P43406). The assay can be described thus: FACS, K562 cells expressing mouse αVβ6 (parental K562: 15). (In general: Flow cytometry measures light scatter and fluorescence of single cells or particles in a stream.)
The next assay addresses soluble αVβ6 (human) (UniProt P06756). Description: ELISA, 1 ug/mL on plate-coated soluble αVβ6. A general note: An ELISA detects its analyte on a solid surface through an enzyme-linked reagent.
Assay [5] has as its target cynomolgus αVβ6 on cells (cynomolgus). The assay can be described thus: FACS, K562 cells expressing cynomolgus αVβ6 (parental K562: 15).
Assay [6] has the same target. The assay can be described thus: FACS, 1 ug/ml, HEK-293 transfected with cynomolgus αV and β6, day 2.
The target is the same in assay [7]. The assay can be described thus: FACS, 1 ug/ml, HEK-293 transfected with cynomolgus αV and β6, day 1.
Assay [8] concerns the target human αV on parental A375M cells (αVβ3 and αVβ5 integrins) (human) (UniProt P06756). The assay can be described thus: FACS, 1 ug/ml, parental A375M cells, day 2.
Assay [9] shares this target. The assay can be described thus: FACS, 1 ug/ml, parental A375M cells, day 1.
The target in assay [10] is cynomolgus β6 on transfected HEK-293 cells (cynomolgus). Description: FACS, transfected HEK-293 (parental: 0).
Assay [11] deals with mouse αVβ6 on cells (mouse) (UniProt P43406). The assay can be described thus: FACS, transfected HEK-293 (parental: 0).
Assay [12] addresses mouse αV on transfected HEK-293 cells (mouse) (UniProt P43406). Description: FACS, transfected HEK-293 (parental: 0).
For assay [13], the target named is mouse β6 on transfected HEK-293 cells (mouse) (UniProt Q9Z0T9). Description: FACS, transfected HEK-293 (parental: 0).
Chain of mouse β6 on transfected HEK-293 cells (mouse) (Q9Z0T9 22-787): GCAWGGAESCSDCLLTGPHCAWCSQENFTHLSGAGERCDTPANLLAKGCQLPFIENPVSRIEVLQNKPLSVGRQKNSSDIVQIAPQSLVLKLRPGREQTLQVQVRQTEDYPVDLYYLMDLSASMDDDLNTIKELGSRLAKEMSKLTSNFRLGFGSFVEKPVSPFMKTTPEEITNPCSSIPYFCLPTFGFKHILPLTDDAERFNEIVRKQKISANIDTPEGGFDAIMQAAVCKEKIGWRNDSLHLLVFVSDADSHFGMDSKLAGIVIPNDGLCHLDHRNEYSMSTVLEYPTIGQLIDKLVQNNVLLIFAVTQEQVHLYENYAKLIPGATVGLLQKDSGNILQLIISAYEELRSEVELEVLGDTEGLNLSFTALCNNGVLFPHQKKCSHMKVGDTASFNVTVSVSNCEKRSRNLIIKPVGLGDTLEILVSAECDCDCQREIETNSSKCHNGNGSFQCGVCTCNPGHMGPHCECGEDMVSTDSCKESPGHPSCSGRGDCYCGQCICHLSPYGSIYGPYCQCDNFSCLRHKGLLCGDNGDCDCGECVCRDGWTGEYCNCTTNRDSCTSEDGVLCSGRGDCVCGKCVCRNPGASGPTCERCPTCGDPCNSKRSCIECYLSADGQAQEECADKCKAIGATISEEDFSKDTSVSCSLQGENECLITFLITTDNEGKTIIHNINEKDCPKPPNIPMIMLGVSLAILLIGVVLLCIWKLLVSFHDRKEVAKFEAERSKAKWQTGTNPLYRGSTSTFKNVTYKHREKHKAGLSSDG
In assay [14] the target is cynomolgus αVβ6 on cells (cynomolgus). The assay can be described thus: FACS, transfected HEK-293 (parental: 0).
Assay [15] concerns the target cynomolgus αV on transfected HEK-293 cells (cynomolgus). The assay can be described thus: FACS, transfected HEK-293 (parental: 0).
Assay [16] concerns the target human αVβ6 integrin on cells (human) (UniProt P06756). Description: FMAT, 1 ug/mL, HEK 293 cells stably overexpressing αVβ6.
The target is the same in assay [17]. Description: cell-based or functional assay.

Chain of human αV on parental A375M cells (αVβ3 and αVβ5 integrins) (human) (P06756 31-1048 A375M, form in doubt): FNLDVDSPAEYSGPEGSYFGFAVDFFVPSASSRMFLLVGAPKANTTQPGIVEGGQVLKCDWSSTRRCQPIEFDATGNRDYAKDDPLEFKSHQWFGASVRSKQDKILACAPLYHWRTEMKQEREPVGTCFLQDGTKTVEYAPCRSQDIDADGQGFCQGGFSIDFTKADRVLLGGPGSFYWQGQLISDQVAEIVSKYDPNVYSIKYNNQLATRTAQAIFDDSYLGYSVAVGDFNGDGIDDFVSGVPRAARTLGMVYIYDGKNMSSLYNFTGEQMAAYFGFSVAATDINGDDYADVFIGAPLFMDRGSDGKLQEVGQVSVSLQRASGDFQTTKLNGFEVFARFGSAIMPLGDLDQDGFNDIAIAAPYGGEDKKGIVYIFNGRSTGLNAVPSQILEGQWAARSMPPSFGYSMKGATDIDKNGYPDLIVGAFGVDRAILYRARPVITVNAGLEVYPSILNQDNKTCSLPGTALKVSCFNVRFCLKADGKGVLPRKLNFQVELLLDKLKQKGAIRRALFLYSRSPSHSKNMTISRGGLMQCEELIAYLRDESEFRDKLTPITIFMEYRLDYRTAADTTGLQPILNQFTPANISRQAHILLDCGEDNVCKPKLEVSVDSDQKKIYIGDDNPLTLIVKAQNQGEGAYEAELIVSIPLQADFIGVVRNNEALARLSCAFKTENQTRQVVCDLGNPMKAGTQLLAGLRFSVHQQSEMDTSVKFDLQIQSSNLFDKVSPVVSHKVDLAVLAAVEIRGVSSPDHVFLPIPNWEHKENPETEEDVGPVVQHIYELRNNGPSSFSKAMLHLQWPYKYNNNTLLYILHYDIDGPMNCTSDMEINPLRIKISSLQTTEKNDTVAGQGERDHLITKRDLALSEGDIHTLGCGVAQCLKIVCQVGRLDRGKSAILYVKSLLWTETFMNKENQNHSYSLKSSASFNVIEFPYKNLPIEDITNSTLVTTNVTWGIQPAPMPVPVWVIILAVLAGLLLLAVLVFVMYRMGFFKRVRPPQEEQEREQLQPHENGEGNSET
Chain of human αVβ6 integrin on cells (human) (P06756 31-1048, chain 1 of 2): as the sequence (P06756 31-1048 A375M, form in doubt) above, with M345A counted along it
Chain of human αVβ6 integrin on cells (human) (P18564 22-788, chain 2 of 2, further chain): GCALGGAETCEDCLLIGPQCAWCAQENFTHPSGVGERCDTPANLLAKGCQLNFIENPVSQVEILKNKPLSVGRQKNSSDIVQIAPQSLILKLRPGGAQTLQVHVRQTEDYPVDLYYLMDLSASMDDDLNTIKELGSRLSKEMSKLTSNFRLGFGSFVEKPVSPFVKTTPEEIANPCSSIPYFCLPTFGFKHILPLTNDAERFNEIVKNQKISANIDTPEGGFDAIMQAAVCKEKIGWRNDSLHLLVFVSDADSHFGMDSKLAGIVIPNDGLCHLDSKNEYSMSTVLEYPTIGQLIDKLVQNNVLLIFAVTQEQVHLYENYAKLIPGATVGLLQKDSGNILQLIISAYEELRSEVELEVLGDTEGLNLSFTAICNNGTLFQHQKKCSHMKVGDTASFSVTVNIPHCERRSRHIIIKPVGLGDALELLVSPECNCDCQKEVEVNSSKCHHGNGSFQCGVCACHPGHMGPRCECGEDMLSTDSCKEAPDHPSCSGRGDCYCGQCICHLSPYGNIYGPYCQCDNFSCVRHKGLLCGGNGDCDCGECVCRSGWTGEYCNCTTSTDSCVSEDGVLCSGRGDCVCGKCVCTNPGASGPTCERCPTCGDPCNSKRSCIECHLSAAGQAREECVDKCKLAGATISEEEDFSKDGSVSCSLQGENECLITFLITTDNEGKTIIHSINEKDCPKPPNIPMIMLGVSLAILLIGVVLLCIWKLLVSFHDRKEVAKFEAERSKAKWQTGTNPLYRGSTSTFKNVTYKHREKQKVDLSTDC
Chain of α5β1 integrin on K562 cells (P08648 42-1049, chain 1 of 2): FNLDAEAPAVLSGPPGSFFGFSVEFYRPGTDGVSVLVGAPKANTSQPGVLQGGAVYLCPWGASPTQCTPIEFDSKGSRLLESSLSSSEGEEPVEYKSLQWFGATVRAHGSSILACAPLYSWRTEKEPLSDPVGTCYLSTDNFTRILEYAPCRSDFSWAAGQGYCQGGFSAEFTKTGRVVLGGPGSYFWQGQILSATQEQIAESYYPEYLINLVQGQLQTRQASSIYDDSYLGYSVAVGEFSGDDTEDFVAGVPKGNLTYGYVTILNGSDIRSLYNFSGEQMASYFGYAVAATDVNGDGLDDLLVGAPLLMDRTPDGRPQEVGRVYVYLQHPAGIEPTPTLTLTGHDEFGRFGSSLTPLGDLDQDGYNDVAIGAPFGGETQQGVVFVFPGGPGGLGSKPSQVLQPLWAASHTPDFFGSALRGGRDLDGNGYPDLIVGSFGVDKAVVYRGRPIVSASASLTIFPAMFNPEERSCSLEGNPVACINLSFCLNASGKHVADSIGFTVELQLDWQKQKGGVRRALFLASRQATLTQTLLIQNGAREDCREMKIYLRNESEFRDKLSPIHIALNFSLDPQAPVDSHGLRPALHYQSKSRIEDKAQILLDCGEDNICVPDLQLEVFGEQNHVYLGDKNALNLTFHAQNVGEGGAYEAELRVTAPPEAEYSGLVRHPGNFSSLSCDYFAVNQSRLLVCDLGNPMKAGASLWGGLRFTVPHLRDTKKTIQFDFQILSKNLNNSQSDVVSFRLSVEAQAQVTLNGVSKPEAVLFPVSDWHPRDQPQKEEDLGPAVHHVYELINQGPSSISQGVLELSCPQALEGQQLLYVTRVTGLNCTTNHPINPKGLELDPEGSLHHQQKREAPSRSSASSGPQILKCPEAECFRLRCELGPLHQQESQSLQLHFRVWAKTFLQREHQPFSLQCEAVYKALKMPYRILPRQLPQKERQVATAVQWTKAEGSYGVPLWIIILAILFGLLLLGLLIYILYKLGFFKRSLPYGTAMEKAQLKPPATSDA
Chain of α5β1 integrin on K562 cells (P05556 21-798, chain 2 of 2, further chain): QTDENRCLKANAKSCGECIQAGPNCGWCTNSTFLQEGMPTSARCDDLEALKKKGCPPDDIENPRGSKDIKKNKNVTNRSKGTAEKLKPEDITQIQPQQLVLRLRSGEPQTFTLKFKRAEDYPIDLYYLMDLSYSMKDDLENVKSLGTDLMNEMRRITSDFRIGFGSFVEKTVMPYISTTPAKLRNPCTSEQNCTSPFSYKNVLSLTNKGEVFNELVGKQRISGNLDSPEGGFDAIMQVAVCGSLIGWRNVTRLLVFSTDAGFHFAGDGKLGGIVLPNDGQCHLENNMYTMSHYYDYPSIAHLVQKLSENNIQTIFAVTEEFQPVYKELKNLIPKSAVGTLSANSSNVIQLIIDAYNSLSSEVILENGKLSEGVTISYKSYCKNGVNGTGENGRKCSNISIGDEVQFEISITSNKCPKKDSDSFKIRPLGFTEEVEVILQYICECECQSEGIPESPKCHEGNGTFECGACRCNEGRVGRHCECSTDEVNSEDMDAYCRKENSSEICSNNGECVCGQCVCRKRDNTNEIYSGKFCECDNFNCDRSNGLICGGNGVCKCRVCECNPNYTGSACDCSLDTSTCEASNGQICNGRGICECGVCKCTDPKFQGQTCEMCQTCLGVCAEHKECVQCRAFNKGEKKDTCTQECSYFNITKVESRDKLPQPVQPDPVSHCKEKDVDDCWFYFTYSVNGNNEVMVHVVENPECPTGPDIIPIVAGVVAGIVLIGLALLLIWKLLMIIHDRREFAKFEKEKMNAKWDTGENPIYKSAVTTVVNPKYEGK

Turning to Human IgG1 (antibody), in [1], the Percent Inhibition of J6.77 adhesion to CS-1 peptide, 5 ug/ml is -6%.

For the substance Human IgG2 (antibody), the Percent Inhibition of J6.77 adhesion to CS-1 peptide, 5 ug/ml in [1] was -9%.

As to Human IgG Isotype Control (antibody), in [2], the Percent Inhibition of A375M adhesion to osteopontin peptide, 5 ug/ml came to 3%. Besides, in assay [3], the % Inhibition of K562 adhesion to fibronectin was -12% and the Percent Inhibition of K562 adhesion to FN9-10, 5 ug/ml was found to be 11%.

As to Mouse IgG Control (antibody), in assay [2], the Percent Inhibition of A375M adhesion to osteopontin peptide, 5 ug/ml came to 5%.

Turning to “murine anti-αVβ6 antibody 2077z (Cat#MAB2077z, Chemicon)”, the Geometric Mean Shift (arbitrary units) in assay [4] was 122; in [5], 84. The same substance gave an ELISA OD with soluble αVβ6 (human) of 6 OD. The % Cells Shifted in [6] was determined as 11%; in assay [7], 42%; in assay [8], 5%; in assay [9], 30%. Moreover, the GeoMean came out at 28.1 in [6], 55.5 in [7], 15.4 in assay [8] and 2.03 in assay [9]. The percent of cells shifted in [10] came out at 5%; in [11] it was 45%; in assay [12] it was 1%; in assay [13] it was 11%; in assay [14], 20%; in [15], 0%. For the same substance, the FMAT Count in [16] amounted to 67. In assay [16], the FMAT FL1 amounted to 659. Also, the FMAT FL1XCount in [16] was 44200. Besides, the Estimated IC50, adhesion assay, n = 1 in assay [17] is 0.226 µg/mL. Besides, the Estimated IC50, adhesion assay, n = 2 in assay [17] was 0.185 µg/mL. In assay [17], the Estimated IC50, adhesion assay, n = 3 is 0.286 µg/mL.

The values above are taken from US20160319032A1.
